Measurements published in patent publication US20080089862A1 (published 2008).

What was measured:
Experiment in all cases: ELISA
[1] = biological target: peptide aptamer NNS8/N8 (MBP with C-terminal peptide […]) (Escherichia coli (strain K12), UniProt P0AEX9 29-392 = MBP)
[2] = biological target: peptide aptamer RB13 (MBP with C-terminal peptide […]) (Escherichia coli (strain K12), UniProt P0AEX9 29-392 = MBP)
[3] = biological target: peptide aptamer NNS8/N10 (MBP with C-terminal peptide […]) (Escherichia coli (strain K12), UniProt P0AEX9 29-392 = MBP)
[4] = biological target: peptide aptamer NNS8/N21 (MBP with C-terminal peptide […]) (Escherichia coli (strain K12), UniProt P0AEX9 29-392 = MBP)
[5] = biological target: peptide aptamer RB18 (MBP with C-terminal peptide […]) (Escherichia coli (strain K12), UniProt P0AEX9 29-392 = MBP)
[6] = biological target: peptide aptamer RB16 (MBP with C-terminal peptide […]) (Escherichia coli (strain K12), UniProt P0AEX9 29-392 = MBP)
[7] = biological target: peptide aptamer NNS8/N23 (MBP with C-terminal peptide […]) (Escherichia coli (strain K12), UniProt P0AEX9 29-392 = MBP)
[8] = biological target: peptide aptamer NNS8/N7 (MBP with C-terminal peptide […]) (Escherichia coli (strain K12), UniProt P0AEX9 29-392 = MBP)
[9] = biological target: peptide aptamer NNS8/N22 (MBP with C-terminal peptide […]) (Escherichia coli (strain K12), UniProt P0AEX9 29-392 = MBP)
[10] = biological target: peptide aptamer NNS8/N5 (MBP with C-terminal peptide […]) (Escherichia coli (strain K12), UniProt P0AEX9 29-392 = MBP)
[11] = biological target: peptide aptamer RB17 (MBP with C-terminal peptide […]) (Escherichia coli (strain K12), UniProt P0AEX9 29-392 = MBP)
[12] = biological target: peptide aptamer RB15 (MBP with C-terminal peptide […]) (Escherichia coli (strain K12), UniProt P0AEX9 29-392 = MBP)

Measured: binding result

B1: single-chain NS3 protease (scNS3) (enzyme)
chain: GSVVIVGRIILSGRAPITAYSQQTRGLLGCIITSLTGRDKNQVEGEVQVVSTATQSFLATCVNGVCWTVYHGAGSKTLAAPKGPITQMYTNVDQDLVGWPKPPGARSLTPCTCGSSDLYLVTRHADVIPVRRRGDSRGSLLSPRPVSYLKGSSGGPLLCPFGHAVGIFRAAVCTRGVAKAVDFVPVESMETTMRS
notes: domain: NS4A cofactor peptide;domain: NS3 protease domain
no binding: all assays above
